This passage reports Kd results from patent US20260193335A1 (ZOETIS SERVICES, published 2026).

Substitutions are numbered along the chain they refer to. In names and notes the source's numbering stands.

In general, Kd refers to the equilibrium constant for the complex coming apart.

The target of the test is T1, Feline FcRn (complex of FcRn-α subunit and β-microglobulin, C-terminal His tag) (feline, UniProt A0ABI7ZNY9 23-296; Q5MGS7 21-118).
T1 construct: treated here as one molecule
The experiment in a line: SPR Biacore, biotin-FcRn on SA chip, pH 6. On the procedure: Feline FcRn was isolated, prepared and mutant Fc IgGs were assayed against feline FcRn according to Strietzel et. al., discussed above. Standard PCR was used to amplify feline FcRn-α subunit and β-microglobulin. FcRn-α subunit and β-microglobulin were co-transfected into HEK 293 cells and the FcRn complex was purified by IMAC affinity purification via the c-terminal His tag. FcRn complex was biotin labeled through BirA enzymatic biotinylatoin reaction. KD's were measured by Biacore T200 (GE Healthcare, Pittsburgh, PA, USA) or Biacore 8K (Cytiva, Marlborough, MA, USA) using a SA sensor chip.
FcRn was captured on the surface of the sensor using a modified SA capture method. 10 mM MES; 150 mM NaCl; 0.005% Tween20; 0.5 mg/mL BSA; pH6 was used as capture, method running buffer and titrations. 1×HBS-P, 0.5 mg/mL BSA; pH7.4 was also used for method running buffer and titrations. Fc mutant IgGs were flowed over receptor surfaces and affinity was determined using T200 evaluation software or Biacore Insight Evaluation software. Blank runs containing buffer only were subtracted out from all runs. Flow cells were regenerated using 50 mM Tris pH8 or pH9. Runs were performed at 15° C.

B1: mAb3 (felinized anti-NGF antibody ZTS-768) S428A, feline IgG1a (antibody)
heavy: DVQLVESGGDLVKPGGSLRLTCVASGFTYSNYWMHWVRQAPGKGLQWVARIDPYGGGTKHNEKFKRRFTISRDNAKNTLYLQMNSLKTEDTATYYCVRSGYDYYFDVWGQGTLVTVSSASTTAPSVFPLAPSCGTTSGATVALACLVLGYFPEPVTVSWNSGALTSGVHTFPAVLQASGLYSLSSMVTVPSSRWLSDTFTCNVAHPPSNTKVDKTVRKTDHPPGPKPCDCPKCPPPEMLGGPSIFIFPPKPKDTLSISRTPEVTCLVVDLGPDDSDVQITWFVDNTQVYTAKTSPREEQFNSTYRVVSVLPILHQDWLKGKEFKCKVNSKSLPSPIERTISKAKGQPHEPQVYVLPPAQEELSRNKVSVTCLIKSFHPPDIAVEWEITGQPEPENNYRTTPPQLDSDGTYFVYSKLSVDRSHWQRGNTYTCSVAHEALHSHHTQKSLTQSPGK
light: EIQMTQSPSSLSASPGDRVTITCRASENIYSFLAWYQQKPGKVPKLLIYNANTLAEGVPSRFSGSGSGTDFTLTISSLEPEDAATYYCQHHFGTPFTFGSGTKLEIKRSDAQPSVFLFQPSLDELHTGSASIVCILNDFYPKEVNVKWKVDGVVQNKGIQESTTEQNSKDSTYSLSSTLTMSSTEYQSHEKFSCEVTHKSLASTLVKSFQRSECQRE
notes: also called mAb3 ID No. 89
As for B1, the equilibrium dissociation constant (Kd) turned out to be 22.3 nM.

B2: mAb3 (felinized anti-NGF antibody ZTS-768) S428M, feline IgG1a (antibody)
heavy: B1 heavy with A434M
light: B1 light
notes: also called mAb3 ID No. 99
The molecule B2 displayed a Kd of 6.89 nM.

B3: mAb3 (felinized anti-NGF antibody ZTS-768) S428L and S434H, feline IgG1a (antibody)
heavy: B1 heavy with A434L, S440H
light: B1 light
notes: also called mAb3 ID No. 109
B3 registered a Kd of 13.1 nM.

B4: mAb3 (felinized anti-NGF antibody ZTS-768) S428D, feline IgG1a (antibody)
heavy: B1 heavy with A434D
light: B1 light
notes: also called mAb3 ID No. 91
Regarding B4, the dissociation constant (Kd) worked out at 56.8 nM.

B5: mAb3 (felinized anti-NGF antibody ZTS-768) S428L and S434W, feline IgG1a (antibody)
heavy: B1 heavy with A434L, S440W
light: B1 light
notes: also called mAb3 ID No. 113
The molecule B5 showed a Kd of 23.6 nM.

B6: mAb3 (felinized anti-NGF antibody ZTS-768) S428Y and S434P, feline IgG1a (antibody)
heavy: B1 heavy with A434Y, S440P
light: B1 light
On to B6, for which binding was put at a Kd of 16.6 nM.

B7: mAb3 (felinized anti-NGF antibody ZTS-768) S428K, feline IgG1a (antibody)
heavy: B1 heavy with A434K
light: B1 light
notes: also called mAb3 ID No. 97
Regarding B7, the dissociation constant Kd came out at 22.2 nM. This Kd and that of the molecule before are within 1.5-fold of each other.

B8: mAb3 (felinized anti-NGF antibody ZTS-768) S428Y, feline IgG1a (antibody)
heavy: B1 heavy with A434Y
light: B1 light
Molecule B8 came in with a Kd of 58.2 nM.

B9: mAb3 (felinized anti-NGF antibody ZTS-768) S428G, feline IgG1a (antibody)
heavy: B1 heavy with A434G
light: B1 light
notes: also called mAb3 ID No. 94
Regarding B9, binding was put at a Kd of 87.7 nM.

B10: mAb3 (felinized anti-NGF antibody ZTS-768) S428W, feline IgG1a (antibody)
heavy: B1 heavy with A434W
light: B1 light
Turning to B10, the affinity, expressed as Kd, was 18.5 nM. Against the preceding molecule, the Kd is about 4.7-fold lower.

B11: mAb3 (felinized anti-NGF antibody ZTS-768) S428Y and S434H, feline IgG1a (antibody)
heavy: B1 heavy with A434Y, S440H
light: B1 light
notes: also called mAb3 ID No. 114
As to B11, the Kd came to 3.25 nM.

B12: mAb3 (felinized anti-NGF antibody ZTS-768) S428L and S434P, feline IgG1a (antibody)
heavy: B1 heavy with A434L, S440P
light: B1 light
For the molecule B12, binding was put at a Kd of 18.8 nM.

B13: mAb3 (felinized anti-NGF antibody ZTS-768) S428R, feline IgG1a (antibody)
heavy: B1 heavy with A434R
light: B1 light
notes: also called mAb3 ID No. 103
B13 yielded a Kd of 27.3 nM.

B14: mAb3 (felinized anti-NGF antibody ZTS-768) S428F, feline IgG1a (antibody)
heavy: B1 heavy with A434F
light: B1 light
notes: also called mAb3 ID No. 93
In the case of B14, binding was characterised by a dissociation constant (Kd) of 6.75 nM.

B15: mAb3 (felinized anti-NGF antibody ZTS-768) S428H, feline IgG1a (antibody)
heavy: B1 heavy with A434H
light: B1 light
notes: also called mAb3 ID No. 95
The molecule B15 gave a Kd of 53.3 nM. This Kd is about 7.9-fold higher than that of the molecule before.

B16: mAb3 (felinized anti-NGF antibody ZTS-768) S428P, feline IgG1a (antibody)
heavy: B1 heavy with A434P
light: B1 light
notes: also called mAb3 ID No. 101
As to B16, the affinity, expressed as Kd, was 17.8 nM.

B17: mAb3 (felinized anti-NGF antibody ZTS-768) S428L and S434L, feline IgG1a (antibody)
heavy: B1 heavy with A434L, S440L
light: B1 light
notes: also called mAb3 ID No. 111
Take B17: the Kd was 0.312 nM.

B18: mAb3 (felinized anti-NGF antibody ZTS-768) S428V, feline IgG1a (antibody)
heavy: B1 heavy with A434V
light: B1 light
notes: also called mAb3 ID No. 105
B18 gave a Kd of 17.1 nM.

B19: mAb3 (felinized anti-NGF antibody ZTS-768) S428L, feline IgG1a (antibody)
heavy: B1 heavy with A434L
light: B1 light
notes: also called mAb3 ID No. 98
B19 came in with a Kd of 15.4 nM. The Kd values of the last two molecules are within 1.5-fold of each other.

B20: mAb3 (felinized anti-NGF antibody ZTS-768) S428I, feline IgG1a (antibody)
heavy: B1 heavy with A434I
light: B1 light
notes: also called mAb3 ID No. 96
B20 came in with an equilibrium dissociation constant (Kd) of 22.2 nM.

B21: mAb3 (felinized anti-NGF antibody ZTS-768) S428C, feline IgG1a (antibody)
heavy: B1 heavy with A434C
light: B1 light
notes: also called mAb3 ID No. 90
In turn, B21 registered a Kd of 26.2 nM. The Kd values of the last two molecules are within 1.5-fold of each other.

B22: mAb3 (felinized anti-NGF antibody ZTS-768) S428L and S434F, feline IgG1a (antibody)
heavy: B1 heavy with A434L, S440F
light: B1 light
notes: also called mAb3 ID No. 110
As to B22, the Kd is 3.38 nM.

B23: mAb3 (felinized anti-NGF antibody ZTS-768) S428Q, feline IgG1a (antibody)
heavy: B1 heavy with A434Q
light: B1 light
As to B23, binding was put at a Kd of 71.3 nM.

B24: mAb3 (felinized anti-NGF antibody ZTS-768) S428N, feline IgG1a (antibody)
heavy: B1 heavy with A434N
light: B1 light
notes: also called mAb3 ID No. 100
The molecule B24 yielded a Kd of 11.2 nM. This Kd is about 6.4-fold lower than that of the molecule before.

B25: mAb3 (felinized anti-NGF antibody ZTS-768) S428Y and S434W, feline IgG1a (antibody)
heavy: B1 heavy with A434Y, S440W
light: B1 light
On to B25, for which the affinity, expressed as Kd, was 0.812 nM.

B26: mAb3 (felinized anti-NGF antibody ZTS-768) S428E, feline IgG1a (antibody)
heavy: B1 heavy with A434E
light: B1 light
notes: also called mAb3 ID No. 92
Turning to B26, the Kd was 57.4 nM.

B27: mAb3 (felinized anti-NGF antibody ZTS-768) S428Y and S434L, feline IgG1a (antibody)
heavy: B1 heavy with A434Y, S440L
light: B1 light
notes: also called mAb3 ID No. 116
B27 displayed a Kd of 34.3 nM.

B28: mAb3 (felinized anti-NGF antibody ZTS-768) S428Y and S434F, feline IgG1a (antibody)
heavy: B1 heavy with A434Y, S440F
light: B1 light
notes: also called mAb3 ID No. 115
In turn, B28 yielded an equilibrium dissociation constant (Kd) of 2.94 nM.

B29: mAb3 (felinized anti-NGF antibody ZTS-768) S428T, feline IgG1a (antibody)
heavy: B1 heavy with A434T
light: B1 light
notes: also called mAb3 ID No. 104
B29 registered a Kd of 25.8 nM. This Kd lies about 8.8-fold higher than the previous one.
